From publication PMC2680606

Target: Myc-UbcM2-His6 (mouse) (UniProt P52483)
Assay: pull-down

Chain of Myc-UbcM2-His6 (mouse) (P52483 whole entry): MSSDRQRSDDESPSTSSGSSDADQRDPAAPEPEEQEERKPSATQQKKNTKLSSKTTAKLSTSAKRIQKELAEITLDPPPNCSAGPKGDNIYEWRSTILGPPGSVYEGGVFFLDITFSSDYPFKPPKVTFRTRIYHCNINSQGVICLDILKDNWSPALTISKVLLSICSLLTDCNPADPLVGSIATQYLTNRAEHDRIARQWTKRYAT
Chain of ^35S-RCBTB1 without the BTB domain and the C-terminal 87 residues (Q8NDN9 1-359): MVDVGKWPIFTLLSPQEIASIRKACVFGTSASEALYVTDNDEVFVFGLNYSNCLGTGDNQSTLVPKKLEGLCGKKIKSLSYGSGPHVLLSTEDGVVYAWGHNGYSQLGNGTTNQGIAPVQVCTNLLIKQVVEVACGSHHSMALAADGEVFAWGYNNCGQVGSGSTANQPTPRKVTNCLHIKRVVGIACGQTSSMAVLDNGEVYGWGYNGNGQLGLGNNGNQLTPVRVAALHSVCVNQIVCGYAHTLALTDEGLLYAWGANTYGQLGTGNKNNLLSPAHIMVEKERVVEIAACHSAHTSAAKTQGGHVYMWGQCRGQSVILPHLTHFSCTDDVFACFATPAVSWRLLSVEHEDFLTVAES

^35S-RCBTB1 without the BTB domain and the C-terminal 87 residues (from UniProt Q8NDN9 1-359) (domain or fragment)
decrease of binding against wild type RCBTB1: 78%
